Here are results for 55 variants from publication PMC10244618.

First the molecules themselves.
B1: NF2 (merlin) isoform 7, human, full length (507 aa, lacks exons 2-3 = isoform-1 residues 39-121; exon-16 C-terminus), P35240-4 (parent)
chain: MAGAIASRMSFSSLKRKQPKTFTVRIVTMDAEMEFNCEVKKQILDEKIYCPPEASVLLASYAVQAKYGDYDPSVHKRGFLAQEELLPKRVINLYQMTPEMWEERITAWYAEHRGRARDEAEMEYLKIAQDLEMYGVNYFAIRNKKGTELLLGVDALGLHIYDPENRLTPKISFPWNEIRNISYSDKEFTIKPLDKKIDVFKFNSSKLRVNKLILQLCIGNHDLFMRRRKADSLEVQQMKAQAREEKARKQMERQRLAREKQMREEAERTRDELERRLLQMKEEATMANEALMRSEETADLLAEKAQITEEEAKLLAQKAAEAEQEMQRIKATAIRTEEEKRLMEQKVLEAEVLALKMAEESERRAKEADQLKQDLQEAREAERRAKQKLLEIATKPTYPPMNPIPAPLPPDIPSFNLIGDSLSFDFKDTDMKRLSMEIEKEKVEYMEKSKHLQEQLNELKTEIEALKLKERETALDILHNENSDRGGSSKHNTIKKPQAQGRRPICI

Where “and” joins values, the source holds several entries; their conditions need not be identical. Identical values can stand only once.

In the first test the parent is B1. In words: reverse yeast two-hybrid deep mutational scan (rY2H-seq): NF2 isoform 7 mutant library as bait mated with wild-type prey strains; selection on medium lacking adenine for non-interacting pairs; NextSeq paired-end sequencing; enrichment vs …. The conditions noted are these: with EMILIN1 (elastin microfibril interfacer 1), Q9Y6C2; yeast diploids after mating (RBait_S3 x RPrey_S3), 30 °C, selection for reporter genes on NB agar; human tyrosine kinase ABL2 co-expressed as the active kinase …; HIGHER = WEAKER BINDING (the opposite of display enrichments): higher = stronger loss of interaction: reverse Y2H selects yeast in which bait and prey do NOT interact (growth without adenine), so a …; hits-only table; scale: rY2H score; numbering: uniprot, sequence starts at 1. On the technique in general: In a reporter assay the amount or activity of a reporter protein is the signal.
On to K318A, for which the enrichment is 5.52.
Still for that read-out and setting: then D271L, with 2.2.
As to A290L, the enrichment was determined as 38.6.
Still for that read-out and setting: the figure for R364K is 2.07; for E309A it is 2.33; for K304W it is 13.1 and 10.8.
On the same count and under the same terms, the figure for K340L is 1.95 and 2.03; for L390C it is 5.21 and 8.08; for E337A it is 1.89.
The same measure, in the same setting: the figure for E367K is 1.96.
For L314N, the enrichment stood at 18.6.
The same measure, in the same setting: the figure for L151E is 15.6; for D425L it is 3.06; for I329K it is 1.63 and 1.9.
The same measure, in the same setting: then K460E, with 6.17; and E252K, with 1.41.
Take L150A: the enrichment was determined as 2.56.
Regarding T429K, the enrichment stood at 5.25.
Still for that read-out and setting: then D484K, with 2.87; and K469A, with 5.72.
Same read-out and setting: the figure for L58P is 6.14; for Q345E it is 3.31.
On the same count and under the same terms, the figure for Q345L is 2.57.
Take A378T: the enrichment came to 2.24.
Turning to H75E, the enrichment was found to be 6.72.
On the same count and under the same terms, the figure for L478A is 1.45.
The same measure, in the same setting: the figure for L375K is 4.18; for L375A it is 4.49.
On to K386Q, for which the enrichment stood at 2.16.
Same read-out and setting: then K386T, with 7.62; and L355E, with 1.61; and T168A, with 2.55.
With T397L, the enrichment worked out at 2.34.
Consider Q261Y, for which the enrichment was found to be 2.07.
For V74S, the enrichment turned out to be 6.93.
The same measure, in the same setting: the figure for Q324Y is 1.67; for L156W it is 1.61 and 3.25; for A287T it is 1.8.

The same test, now with this note: with KDM1A (lysine-specific histone demethylase 1A; the table's label AOF2 is a gene synonym of KDM1A), O60341; yeast diploids after mating (RBait_S3 x RPrey_S3), 30 °C, selection for reporter genes on NB agar; human ABL2 co-expressed as the kinase-dead K35M mutant …; HIGHER = WEAKER BINDING (the opposite of display enrichments): higher = stronger loss of interaction: reverse Y2H selects yeast in which bait and prey do NOT interact (growth without adenine), so a …; hits-only table; scale: rY2H score; numbering: uniprot, sequence starts at 1.
For the variant K318A, the enrichment came out at 3.56.
Same read-out and setting: then N482L, with 2.71.
With N482T, the enrichment was 2.3.
The same measure, in the same setting: the figure for D271L is 4.25.
Take D271K: the enrichment worked out at 5.07.
The same measure, in the same setting: the figure for R364K is 3.56; for E309L it is 1.9.
The same measure, in the same setting: the figure for K304W is 17.
Same read-out and setting: then A358L, with 7.18.
In the case of K340L, the enrichment came to 3.29.
On the same count and under the same terms, then L390C, with 6.37; and E337L, with 1.6; and M262I, with 1.81.
The same measure, in the same setting: the figure for K460L is 4.85; for D484K it is 4.88; for E311L it is 2.66.
Still for that read-out and setting: the figure for S423E is 9.11; for G486D it is 1.52; for L58P it is 7.73.
Consider Q345L, for which the enrichment came out at 3.2.
Still for that read-out and setting: the figure for A378T is 1.71.
Same read-out and setting: the figure for H75E is 2.15.
With H75S, the enrichment turned out to be 2.92.
Same read-out and setting: the figure for Q498L is 1.65.
Turning to K386T, the enrichment came to 5.27.
Still for that read-out and setting: the figure for C506S is 1.49.
Same read-out and setting: the figure for T168P is 1.77.
Consider Q324Y, for which the enrichment was found to be 1.47.
On the same count and under the same terms, then D374T, with 7.88 and 2.96; and L156W, with 4.82 and 4.33.
The same measure, in the same setting: then Q64L, with 2.29.

The test is the same for the next values; noted with them: with KDM1A (lysine-specific histone demethylase 1A; the table's label AOF2 is a gene synonym of KDM1A), O60341; yeast diploids after mating (RBait_S3 x RPrey_S3), 30 °C, selection for reporter genes on NB agar; human tyrosine kinase ABL2 co-expressed as the active kinase …; HIGHER = WEAKER BINDING (the opposite of display enrichments): higher = stronger loss of interaction: reverse Y2H selects yeast in which bait and prey do NOT interact (growth without adenine), so a …; hits-only table; scale: rY2H score; numbering: uniprot, sequence starts at 1.
As for K318A, the enrichment came out at 3.09.
Still for that read-out and setting: the figure for E309L is 1.51; for A358L it is 6.77; for I329K it is 2.5.
Still for that read-out and setting: then T429K, with 11.2; and E311L, with 5.65.
Same read-out and setting: then K469A, with 3; and L58P, with 4.64 and 3.28.
On to Q345E, for which the enrichment came to 3.73.
Still for that read-out and setting: the figure for Q345L is 2.39; for H75S it is 3.22.
The same measure, in the same setting: then L375A, with 3.07; and L156W, with 5.87.

Still in this test, the particulars now being: with PIK3R3 (phosphatidylinositol 3-kinase regulatory subunit gamma), Q92569; yeast diploids after mating (RBait_S3 x RPrey_S3), 30 °C, selection for reporter genes on NB agar; human tyrosine kinase ABL2 co-expressed as the active kinase …; HIGHER = WEAKER BINDING (the opposite of display enrichments): higher = stronger loss of interaction: reverse Y2H selects yeast in which bait and prey do NOT interact (growth without adenine), so a …; hits-only table; scale: rY2H score; numbering: uniprot, sequence starts at 1.
In the case of K318A, the enrichment was found to be 5.56.
Turning to A358L, the enrichment stood at 4.62.
On the same count and under the same terms, then K340L, with 1.55; and L390C, with 10.7; and I329K, with 1.89.
Still for that read-out and setting: the figure for K460L is 10.6; for L58P it is 6.79 and 6.06.
As to Q345E, the enrichment is 3.74.
Still for that read-out and setting: the figure for H75E is 11.9 and 8.5.
Still for that read-out and setting: the figure for L375K is 5.19; for T168A it is 6.22.
The same measure, in the same setting: the figure for L156W is 3.91 and 3.42; for Q64L it is 6.71.

Staying with this test, now noted: with NF2 C-terminal domain (wild type; homomeric NF2-NF2 interaction), P35240; yeast diploids after mating (RBait_S3 x RPrey_S3), 30 °C, selection for reporter genes on NB agar; human ABL2 co-expressed as the kinase-dead K35M mutant …; HIGHER = WEAKER BINDING (the opposite of display enrichments): higher = stronger loss of interaction: reverse Y2H selects yeast in which bait and prey do NOT interact (growth without adenine), so a …; hits-only table; partner unresolved; scale: rY2H score; numbering: uniprot, sequence starts at 1.
Consider N482T, for which the enrichment was 2.43.
The same measure, in the same setting: then R364K, with 2.52; and L390C, with 4.75; and I329K, with 2.98 and 2.25.
On the same count and under the same terms, then K460E, with 3.55; and K469A, with 2.32 and 4.81; and L58P, with 2.09.
On the same count and under the same terms, then Q345L, with 1.49 and 2.6; and H75E, with 2.7.
As to H75S, the enrichment turned out to be 2.58.
The same measure, in the same setting: then L375K, with 6.66.
On the same count and under the same terms, the figure for L355E is 1.76; for D374T it is 3.23; for L156W it is 5.5 and 4.13.
